From patent US20260092093A1 (TJ BIOPHARMA SHANGHAI, published 2026)

T1: hIL-18 receptor (hIL-18Rα and hIL-18Rβ) (human, UniProt Q13478 19-541; O95256 20-599)
T1 sequence (looked up) 1: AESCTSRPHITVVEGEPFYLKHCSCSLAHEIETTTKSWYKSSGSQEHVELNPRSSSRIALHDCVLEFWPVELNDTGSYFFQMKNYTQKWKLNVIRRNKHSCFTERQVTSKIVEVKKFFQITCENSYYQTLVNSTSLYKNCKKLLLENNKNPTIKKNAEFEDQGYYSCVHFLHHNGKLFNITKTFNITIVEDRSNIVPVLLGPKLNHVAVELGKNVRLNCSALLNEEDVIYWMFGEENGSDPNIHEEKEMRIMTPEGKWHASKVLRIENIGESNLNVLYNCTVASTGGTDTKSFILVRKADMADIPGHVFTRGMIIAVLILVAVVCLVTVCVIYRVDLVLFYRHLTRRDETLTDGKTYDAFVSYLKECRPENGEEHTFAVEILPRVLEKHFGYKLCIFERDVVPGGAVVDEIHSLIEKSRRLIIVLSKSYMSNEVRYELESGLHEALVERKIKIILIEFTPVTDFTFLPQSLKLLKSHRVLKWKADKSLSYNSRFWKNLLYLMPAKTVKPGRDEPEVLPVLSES
T1 sequence (looked up) 2: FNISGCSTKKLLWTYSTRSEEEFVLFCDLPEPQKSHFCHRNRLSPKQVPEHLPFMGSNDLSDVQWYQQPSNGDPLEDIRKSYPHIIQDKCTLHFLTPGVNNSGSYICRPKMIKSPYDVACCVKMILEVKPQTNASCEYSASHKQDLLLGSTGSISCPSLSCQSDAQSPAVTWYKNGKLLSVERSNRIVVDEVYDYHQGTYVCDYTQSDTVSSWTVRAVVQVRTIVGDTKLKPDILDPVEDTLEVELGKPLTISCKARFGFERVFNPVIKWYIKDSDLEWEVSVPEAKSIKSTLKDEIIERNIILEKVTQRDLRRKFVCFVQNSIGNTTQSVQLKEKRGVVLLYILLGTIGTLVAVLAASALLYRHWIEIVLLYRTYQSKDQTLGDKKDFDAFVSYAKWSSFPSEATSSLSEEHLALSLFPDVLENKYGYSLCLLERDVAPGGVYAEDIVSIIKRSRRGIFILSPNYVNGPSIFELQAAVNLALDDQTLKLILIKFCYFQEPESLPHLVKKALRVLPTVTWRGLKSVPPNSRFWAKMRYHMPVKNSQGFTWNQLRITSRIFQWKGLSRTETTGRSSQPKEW

T2: hIL-18BP-hFc (human, UniProt O95998 31-194, limits assumed)
T2 sequence (looked up): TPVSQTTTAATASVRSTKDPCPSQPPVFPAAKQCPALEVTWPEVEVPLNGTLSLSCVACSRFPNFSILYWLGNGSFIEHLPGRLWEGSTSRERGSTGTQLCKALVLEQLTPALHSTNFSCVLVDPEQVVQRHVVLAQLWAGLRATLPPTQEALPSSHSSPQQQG


Key:
[1] = target: T1, hIL-18 receptor (hIL-18Rα and hIL-18Rβ); experiment: cell-based or functional assay
hIL-18BP-hFc = target: T2, hIL-18BP-hFc; experiment: cell-based or functional assay

| Binder | EC50 (nM), hIL-18 reporter assay [1] [nM] | EC50 (nM) in the Presence of 1 µg/mL hIL-18BP-hFc, hIL-18 reporter assay (hIL-18BP-hFc) [nM] | EC50 Fold Change (+BP/-BP), hIL-18 reporter assay (hIL-18BP-hFc) [fold] |
| --- | --- | --- | --- |
| IL-18 variant polypeptide M9 (ligand) YFPKLRSKLSVIRNLNDQVLFIDQGNRPLFEDMTDSDCRDNAPRTIFIISMYKWSRARGMAVTISVKCEKISTLSCENKIISFKEMNPPDSIKDTKSDIIFFQSSVPGHDNKMQFESSSYEGYFLACEKERDLFKLILKKEDELGDRSIMFTVQNED | 0.43 | 0.33 | 0.77 |
| IL-18 variant polypeptide M16 (ligand) YFPKLRSKLSVIRNLNDQVLFIDQGNRPLFEDMTDSDCRDNAPRTIFIISMYKSSRNRGMAVTISVKCEKISTLSCENKIISFKEMNPPDGIKDTKSDIIFFQSSVPGHDNKMQFESSSYEGYFLACEKERDLFKLILKKEDELGDRSIMFTVQNED | 0.29 | 0.34 | 1.17 |
| IL-18 variant polypeptide M20 (ligand) YFPKLRSKLSVIRNLNDQVLFIDQGNRPLFEDMTDSDCRDNAPRTIFIISMYKSSRSRGMAVTISVKCEKISTLSCENKIISFKEMNPPDGIKDTKSDIIFFQSSVPGHDNKMQFESSSYEGYFLACEKERDLFKLILKKEDELGDRSIMFTVQNED | 2.2 | 0.5 | 0.23 |
| IL-18 variant polypeptide M18 (ligand) YFPKLRSKLSVIRNLNDQVLFIDQGNRPLFEDMTDSDCRDNAPRTIFIISMYKSSRRRGMAVTISVKCEKISTLSCENKIISFKEMNPPDGIKDTKSDIIFFQSSVPGHDNKMQFESSSYEGYFLACEKERDLFKLILKKEDELGDRSIMFTVQNED | 0.58 | 0.56 | 0.97 |
| IL-18 variant polypeptide M10 (ligand) YFPKLRSKLSVIRNLNDQVLFIDQGNRPLFEDMTDSDCRDNAPRTIFIISMYKQSLWRGMAVTISVKCEKISTLSCENKIISFKEMNPPDSIKDTKSDIIFFQRSVPGHDNKMQFESSSYEGYFLACEKERDLFKLILKKEDELGDRSIMFTVQNED | 0.29 | 0.17 | 0.59 |
| IL-18 variant polypeptide M14 (ligand) YFNKLKSKLSVIRNLNDQVLFIDQGNRPLFEDMTDSDCRDNAPRTIFIISMYKPSSSRGMAVTISVKCEKISTLSCENKIISFKEMNPPDRIKDTKSDIIFFQASVPGHDNKMQFESSSYEGYFLACEKERDLFKLILKKEDELGDRSIMFTVQNED | 0.04 | 0.03 | 0.75 |
| IL-18 variant polypeptide M19 (ligand) YFPKLKSKLSVIRNLNDQVLFIDQGNRPLFEDMTDSDCRDNAPRTIFIISMYKHSEQRGMAVTISVKCEKISTLSCENKIISFKEMNPPDAIKDTKSDIIFFQRSVPGHDNKMQFESSSYEGYFLACEKERDLFKLILKKEDELGDRSIMFTVQNED | 0.66 | 0.31 | 0.47 |
| IL-18 variant polypeptide M22 (ligand) YFPKLRSKLSVIRNLNDQVLFIDQGNRPLFEDMTDSDCRDNAPRTIFIISMYKYSRGRGMAVTISVKCEKISTLSCENKIISFKEMNPPDKIKDTKSDIIFFQSSVPGHDNKMQFESSSYEGYFLACEKERDLFKLILKKEDELGDRSIMFTVQNED | 7.2 | 7.5 | 1.04 |
